# Measurements taken from US8329882B2, “Genetic control of mammalian cells with synthetic RNA regulatory systems” (California Institute of Technology, priority 2009, dated 2012).
# “Also recorded” adds a separate entry of the source.
# Assays:
# CTLL-2 cells [1] = conditions: 100 U/ml IL-2 every 48 hours; cell count every 24 hours
# Method: Cells were cultured in media containing the indicated concentration of (a) theophylline and (b) tetracycline.
# In the experiment shown in FIG. 19, 100 U/ml of IL-2 was fed to all cultures every 48 hours, and cell count was obtained every 24 hours by flow cytometry.
# JAK-STAT pathway = assay: Western blot analysis of phosphorylated STAT5 levels; format: cell-based, mouse; conditions: CffLuc cell line lacking the ribozyme switch system; 500 μM theophylline
# Method: Additional assays on a clonal cell line harboring three copies of L2bulge9 (clone 1264-48) were performed to verify the mechanism of growth regulation and examine the dynamic behavior of the regulatory system to variations in theophylline availability. Cell cultures were grown for one week in the presence of 500 μM theophylline and continued for a second week in the absence of theophylline. Theophylline was reintroduced for another four days at the end of the study. […] CD19 levels returned to basal levels within 48 hours of theophylline removal from the culture. The theophylline-responsive increase in CD19 expression was repeated upon reintroduction of theophylline to culture media. IL-15 expression patterns were verified at the transcript level through quantitative RT-PCR (Example 21, FIG. 8). […]
# Lysate samples were thawed on ice and a standard Bradford assay using Protein Assay Dye (Bio-Rad) was performed with a BSA standard to determine protein concentrations. […] Membranes stained for […] and p-STAT5 were washed 4 times with 100 ml TTBS and once with 100 ml TBS before fluorescent images were acquired and quantified with the Odyssey Infrared Imaging System (Li-Cor). Integrated band intensity was calculated with the Odyssey system using blank gel areas surrounding each band for background subtraction. […]
# primary human TCM cells [2] = assay: TCM cell CD19 expression time-course study; format: cell-based; conditions: 500 μM theophylline, five days; compared to the inactive ribozyme control; three copies of switch
# Method: (§1) Since short production timeline and streamlined processing may be important in clinical applications, characterization studies of TCM cells were performed on bulk transduced, unsorted populations to examine the robustness of the regulatory system in the scenario in which no population refinement was performed. Transduced cells were cultured in the presence and absence of 500 μM theophylline for five days, with daily monitoring of CD19 levels and cell viability by staining with CD19 antibody, annexin V, and SYTOX AAD dead cell stain. […] TCM cells stably expressing the cd19-t2a-il15-L2bulge9(3×) construct were cultured in the presence and absence of 500 μM theophylline. […] Values reported represent mean±s.d. from triplicate samples.
# On day 12 post stimulation, each cell line was used to seed four 25-ml cultures at 0.2×10^6 cells/ml. 500 μM theophylline was added to 2 flasks of each cell line, and no IL-2 or IL-15 was fed to any flask. Two aliquots from each culture were sampled every 24 hours for staining with PE-conjugated CD19 antibody (Beckman Coulter; Fullerton, Calif.). Fluorescence data were obtained with a Quanta Cell Lab Flow Cytometer using a 488-nm laser and a 575/30-nm band-pass filter.
# primary human TCM cells [3] = assay: TCM cell apoptosis time-course study (annexin V / SYTOX AAD / CD19 staining); format: cell-based; conditions: 500 μM theophylline, five days, compared to the inactive ribozyme control
# Method: as §1
# On day 12 post stimulation, each cell line was washed twice with HBSS and used to seed six 25-ml cultures at 0.45×10^6 cells/ml. […] Fluorescence data were obtained using a Quanta Cell Lab Flow Cytometer with both a 488-nm laser and an UV arc lamp. Pacific Blue, PE, and SYTOX AAD were detected through 465/30-nm band pass, 575/30-nm band pass, and 610-nm long pass filters, respectively, Only SYTOX AAD-cells were included in data analyses. The population of live CD19+ cells was determined by gating for annexin V−/PE+ cells and the population of apoptotic CD19+ cells was determined by gating for annexin V+/PE+ cells.
# CTLL-2 cells [4] = assay: Transient transfection in CTLL-2 cells, viability and fluorescence by flow cytometry; format: cell-based, mouse
# T-cell proliferation = assay: In vivo T-cell proliferation study with biophotonic imaging of luciferase signal flux; set-up: species or system NOD/scid-IL2(ko) mice
# Method: To verify in vivo functionality of the T-cell proliferation regulatory system, we examined several clonal cell lines for theophylline-dependent growth in mice over time. Select clones were encased in a hydrogel matrix that contained either 0 μM or 500 μM theophylline and injected into the flanks of NOD/SCID-γc^−/− mice. […] Flux measurements over a 9-day period indicate an average of 40% increase in the growth rate of clone 1264-48 in the presence of […] (n1=4, n2=6, P=0.038 by Mann-Whitney U test).
# Cells were harvested by centrifugation at 1200 rpm at 4° C. for 10 min, washed twice with PBS, resuspended in PBS at a concentration of 2×10^6 cells/ml, and split into two 50 μl aliquots. […] In vivo growth of the injected cells was monitored by biophotonic imaging. […]
# Animals received intraperitoneal (i.p.) injections of 4.29 mg per mouse of freshly prepared luciferin substrate (Caliper Life Sciences; Hopkinton, Mass.) suspended in 150 μl of PBS. […] Luciferase activity was analyzed through Living Image Software 3.1 from Xenogen to quantify tumor region flux (photons per second).
# Statistical analysis was performed on growth rate data using the Mann-Whitney U test to calculate two-tailed P values. The doubling time of injected cells was calculated based on the total luciferase signal flux data collected over the course of each in vivo study. […]
# CTLL-2 cells [5] = assay: In vitro growth assay for stable CTLL-2 cell lines; format: cell-based, mouse; conditions: 500 μM theophylline, without exogenous IL-2
# Method: Growth behavior of individual clones was characterized by culturing under various theophylline concentrations. […] In the experiment shown in FIG. 7, the cell lines were cultured at various theophylline concentrations, and cell growth was monitored by counting viable cells. Clones indicated as 1261-xx stably expressed cd19-tk-il15-L2bulge9(1x). Clone 1264-xx stably expressed cd19-tk-il15-L2bulge9(3×). Growth behaviors differ from clone to clone, as would be expected from non-site-specific integration of the transgene into the host chromosomes. Theophylline-responsive increase in cell growth is evident in fifteen of the sixteen tested clones, and the growth elevation is statistically significant for the sample set (P=0.0150, 0.0011, 0.0013 for 100 μM, 250 μM, and 400 μM, respectively, by Whitney-Mann U test).
# CffLuc-pIL15 clones were cultured under regular conditions (RPMI 1640 media supplemented with 100 U/ml IL-2 every 48 hours, 0.2 mg/ml zeocin, no theophylline), washed twice with HBSS, and split into 5 identical aliquots in 6-well plates at approximately 0.01×10^6 cells/ml (4 ml/well). […] Cell density was calculated by dividing the number of detected live cells by the volume analyzed on the flow cytometer. […]
molecule,measurement,setting,value
CN(C)[C@@H]1C(O)=C(C(N)=O)C(=O)[C@@]2(O)C(O)=C3C(=O)c4c(O)cccc4[C@@](C)(O)[C@H]3C[C@@H]12 [tetracycline],toxicity to CTLL-2 cells,CTLL-2 cells [1],some toxicity
Cn1c(=O)c2[nH]cnc2n(C)c1=O [theophylline],nonspecific activation of JAK-STAT pathway,JAK-STAT pathway,did not nonspecifically activate the JAK-STAT pathway
same,toxicity to CTLL-2 cells,CTLL-2 cells [1],some toxicity
"L2bulge9: theophylline-responsive ribozyme switch, SEQ ID NO: 28 (nucleic acid, L2bulge9) CTCGAGGCGATCGCAAACAAACAAAGCTGTCACCGGATGTGCTTTCCGGTCTGATGAGTCCGTTGTCCAATACCAGCATCGTCTTGATGCCCTTGGCAGTGGATGGGGACGGAGGACGAAACAGCAAAAAGAAAAATAAAAATTTTTTTTTTAATTAATCTTGGGCCC",increase in CD19 expression levels,primary human TCM cells [2],up to 15%
same,reduction in the apoptotic cell population,primary human TCM cells [3]; apoptotic CD19+,up to 54%
same,increase in the live cell population,primary human TCM cells [3]; live CD19+,up to 24%
same,switch control over cell viability and proliferation,"CTLL-2 cells [4]; cd19-tk-t2a-il15 transgene, theophylline",ON switch control over cell viability and proliferation
same,basal knockdown (viability),"CTLL-2 cells [4]; three and four copies of switch, egfp-t2a-il2, viability comparable to No IL-2 Control and sTRSV Ribozyme",Stringent knockdown
"inactive ribozyme: inactive, scrambled hammerhead ribozyme lacking an aptamer, SEQ ID NO: 30; cells expressing it serve as positive control (nucleic acid) CTCGAGGCGATCGCAAACAAACAAAGCTGTCACCGGATGTGCTTTCCGGTACGTGAGGTCCGTGAGGACAGAACAGCAAAAAGAAAAATAAAAATTTTTTTTTTAATTAATCTTGGGCCC",change in in vivo growth rate in response to theophylline addition,"T-cell proliferation; 500 μM theophylline vs none, 9-day period",did not show statistically significant changes; also recorded: no statistically significant difference
same,in vivo T-cell proliferation,"T-cell proliferation; regardless of theophylline availability (0 or 500 μM), 14-day study",Uncontrolled T-cell proliferation
same,growth rate in the presence of theophylline,CTLL-2 cells [5],decreased growth rate
"L2bulge18tc: tetracycline-responsive ribozyme switch, SEQ ID NO: 29 (nucleic acid, L2bulge18tc) CTCGAGGCGATCGCAAACAAACAAAGCTGTCACCGGATGTGCTTTCCGGTCTGATGAGTCCGTTGTCCAAAACATACCAGATTTCGATCTGGAGAGGTGAAGAATTCGACCACCTGGACGAGGACGGAGGACGAAACAGCAAAAAGAAAAATAAAAATTAATTAATCTTGGGCCC",switch activity (fluorescence),"CTLL-2 cells [4]; tetracycline input, single- and multiple-copy switch systems",tetracycline-responsive ON switch activity
